In the supplement of paper PMC12042874:
± gives the uncertainty stated by the source.

Experiment: amyloid nucleation score (Sup35N fusion, yeast selection) (log enrichment); library NNK2; higher = more nucleation; inactive = no reads after selection
Procedure, shortened: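 For the nucleation score, DiMSum gave the log enrichment of output over input reads, centred on the mode score of non-aggregating sequences. Psi-negative yeast expressing Sup35N fused to peptides of 20 random codons were induced with 100 μM copper sulfate for 24 hours and grown 7 days at 30°C on medium lacking adenine and uracil. Input and output plasmid inserts were Illumina-sequenced, and sequences with under 100 input reads were excluded.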

| Substance | amyloid nucleation score |
| --- | --- |
| KGAMA | 0.539 ± 0.39 |
| LDITVCMRFKAPAIIWAYYF | -0.657 ± 0.48 |
| WPFPKSRNRS | -0.076 ± 0.79 |
| IMYWRGFWLFASLFTILWWF | inactive |
| RLLSGCLFGGSRA | -0.623 ± 0.76 |
| VLRHLD | 0.44 ± 0.54 |
| TTNSFINLVYMNMHK | 6.63 ± 0.075 |
| RMFVLLNRPNGLSCKGMFRG | 0.446 ± 0.64 |
| WRSGGQPCVSGSWSVTNLCV | 3.1 ± 0.092 |
| ASTFYMVGSIG | 2.8 ± 0.083 |
| FTTPSRS | 0.623 ± 0.53 |
| SWTCFTLVVRRTAGYWVWSA | 0.331 ± 0.33 |
| CNYYFVKYQGINGCGTPVKF | 3.01 ± 0.12 |
| FNISSNVICDNFRDPLVESD | -1.87 ± 0.78 |
| NMYLDVRRSDGICGHIY | -1.28 ± 1 |
| VNKSSERNESIGRFRTCYRR | 0.345 ± 0.8 |
| VHCSVGNINKDVSCTVVRP | 0.892 ± 0.47 |
| CFMYT | -0.415 ± 0.21 |
| VHSNCSLNGPCMPMCVRRRW | 0.302 ± 0.56 |
| MCVCCYSIRGLVTGWLWLMA | 4 ± 0.061 |
| HHAHGFRPIGMCSCISMDPS | 7.87 ± 0.059 |
| GPLFPNFKSLGGEYRRH | 0.325 ± 0.42 |
| SQYFYMFWMSRATITNTIMP | -0.217 ± 0.74 |
| NVRIVYRPAGPFG | -0.347 ± 0.39 |
| CLDPTDTMMRW | 0.82 ± 0.3 |

| Substance | amyloid nucleation score |
| --- | --- |
| KCGEKRMKCFSDCRRWWLCQ | 4.88 ± 0.068 |
| RVNSIAFI | -0.701 ± 0.56 |
| SRYVPMSFY | 0.125 ± 0.79 |
| HCSFG | 2.32 ± 0.12 |
| GNSYNVKTYTNLVGIIMDKA | inactive |
| AQVDGSISSSSVVSVLKSEV | -0.262 ± 0.36 |
| ENLSQQMFWFKYAKVWGNVH | -0.724 ± 0.39 |
| VRLRGYSR | -0.439 ± 0.39 |
| KLMVPA | 0.248 ± 0.28 |
| SDGLGSILIFGPPNY | -0.992 ± 0.3 |
| PGMPARVHTCLSAMTYNFMC | -0.901 ± 0.44 |
| TYVYNGAYVVGNWL | -0.964 ± 0.54 |
| SSTKFAHTFVHNKWVYSGFS | 2.46 ± 0.11 |
| SWTHRAGYIKRMSE | -0.212 ± 0.55 |
| CRSCEIVLGFLLSCNMCVLS | 3.79 ± 0.06 |
| HWLRSGWELNVRVLGPQATF | 0.982 ± 0.34 |
| SFVVWTPWLSPSYACPRQIF | -0.124 ± 0.76 |
| SRSWTLKFRLGGNVKQYCTW | 5.72 ± 0.091 |
| VGPMEGGYPGVAQLLGEKRN | 2.3 ± 0.2 |
| LFLFGSV | 0.28 ± 0.62 |
| TLMDLNNHPTYGYLLVPTVD | -0.307 ± 0.79 |
| VFYVCFKLQIIDGMLNWCKG | 7.237 ± 0.032 |
| VQPYSILNFRMELKANRLEL | 4.4 ± 0.052 |
| NLASRALIKLFH | -0.538 ± 0.48 |
| CISKLKFLGCRVE | inactive |

| Substance | amyloid nucleation score |
| --- | --- |
| YYLTT | -1.6 ± 1 |
| VFVSWILFTVSPFIIRYRVN | -1.72 ± 0.75 |
| VPNYLCGDTLPEYYETPPDH | 0.224 ± 0.4 |
| IKCWAPLNCSGGLVGHDQAV | -0.562 ± 0.44 |
| GMIVVTSGNSR | -0.037 ± 0.42 |
| PGNCRSFCRS | 0.695 ± 0.47 |
| FFCFFKIYFWMRAAGTSLNR | -0.861 ± 1 |
| LLGSYI | inactive |
| RYLSTLSVLYRTTSCRA | inactive |
| NLCRQVACTLLSLPSDTPRF | 8.842 ± 0.03 |
| RNQNLLWNVSGIAFNKMRRK | 4.02 ± 0.093 |
| IPYLDYMTMH | 0.082 ± 0.22 |
| CKALQLLKGNLIDYCVPFLV | -1.05 ± 0.48 |
| KDRRRVDMLRLGR | 1.36 ± 0.26 |
| SFLKSMMAPIYKCSVWCSML | -0.819 ± 0.64 |
| VFRFNFLRGLKIQVLSRFGW | -0.067 ± 1.1 |
| VISSRGALCRRAKQ | 0.409 ± 0.53 |
| KVTSRTTGMIVSFFMPCLEM | 5.97 ± 0.072 |
| MSSIDFSFCTSSLRTYSIVR | 0.155 ± 1.1 |
| LVNVM | 1.39 ± 0.095 |
| RTDVFWNRMQRDSLFKPNAT | 0.192 ± 0.44 |
| TILVTKG | 4.89 ± 0.11 |
| SINIYNFAQVSAFYCGLVEC | 5.45 ± 0.078 |
| ILDCLSYQLDDVVSAI | 3.21 ± 0.046 |
| RSVKDTPCLKLVLMKRDTLK | 0.092 ± 0.54 |

| Substance | amyloid nucleation score |
| --- | --- |
| SLWTNTSWSAVVQNNWYGTF | 6.94 ± 0.054 |
| FWVALYFSTCFPHDMLSSGP | -0.734 ± 0.54 |
| ISVPYGVKGSSACMNGLGVT | 0.318 ± 0.8 |
| SAGFCFNNCFVFASGDYVNR | 7.493 ± 0.047 |
| GWRKSLNWCVYVGEGASIVV | 0.517 ± 0.25 |
| SAPECNLAARVFYLLSPMGM | 0.13 ± 1.1 |
| LLLTNVKW | inactive |
| MFGGPGGGRDRVMVGDVLLG | 0.295 ± 1 |
| VFWLNGWYCYI | 3.65 ± 0.056 |
| YAPLSTDPYILVHCIRPRLA | -0.558 ± 1 |
| FWLGSVVGNSCAWVITWAIL | -0.036 ± 0.44 |
| LWLIKARYFLELRRLESIRQ | 0.208 ± 1.1 |
| SLEPYMFCSILINFYFFISV | 3 ± 0.14 |
| CNDGGENGWKCTGR | 0.497 ± 0.57 |
| EKVSFASFMS | -1.31 ± 0.78 |
| ERNCISYHKGIFDNNEC | inactive |
| ILQVPRTFFIRSHRSSVHL | inactive |
| LRGGTLVDNNLSANNYVYEI | -0.967 ± 0.76 |
| IRPLFTVLGRKTRQIFTM | -0.283 ± 1 |
| EETVLIFLCYMAGRDLYKVN | 3.21 ± 0.096 |
| SFRDDICWVRWGSL | 0.251 ± 0.23 |
| FCNVKLLLVGWCRVSVKKGV | 2.12 ± 0.28 |
| TLVRSVQLCCGISAWNMEAR | 11.43 ± 0.031 |
| WTDSHSKMRNFRPG | -0.259 ± 0.49 |
| HVTMCKYYFWYMEIVVVKP | -0.456 ± 0.55 |

| Substance | amyloid nucleation score |
| --- | --- |
| KLVDLKVRFDSHLDNLEVAL | -0.204 ± 0.46 |
| VVVNNGTGKVPFDDM | -0.952 ± 0.42 |
| FRIGHSHGYLLM | -0.805 ± 1.1 |
| CYHRKFVLLFFLSNR | inactive |
| RIVFHYVCTVLR | -0.964 ± 0.76 |
| VLRTPIIHTMGTGQV | 0.297 ± 0.56 |
| MCSSPRRNDKLNNGRFYSCS | -1.11 ± 0.54 |
| AICMAY | 1.27 ± 0.095 |
| RFWSMETEHDIIALVFASSV | 0.096 ± 0.49 |
| FLSSSGRFSIVYSLFYEWIP | -0.674 ± 0.76 |
| GVRWYAMRPEVGYL | 0.155 ± 1.1 |
| GKCFIWCSMGIWLGVCDQSA | 3.59 ± 0.089 |
| KNSIDQVTWTCNRYLKLVLS | -0.402 ± 0.39 |
| REWEVCGDCLVGNNGWFRWV | 0.409 ± 0.47 |
| LNVDGDRAGVYIVKVHDPVR | 0.027 ± 0.74 |
| NFDVNSRWDTRTCFLSWLKQ | inactive |
| HWDLIGGVL | -0.176 ± 1.1 |
| TISDTCHESRLDVMRNVPYM | 5.091 ± 0.043 |
| STCLQD | -0.966 ± 1.1 |
| NWQVPKVFQVLNYA | 0.054 ± 0.79 |
| FGIQGWLFSNSWFLILVFFL | inactive |
| KKSSVPTSYLYVNENFLTVL | 6.965 ± 0.054 |
| RGDHLGCSII | -0.101 ± 0.79 |
| SSFCNISAAGYFHIVMLRVV | -0.3 ± 0.5 |
| TSANLLLYRVLKSFLARQHQ | 0.062 ± 0.46 |

| Substance | amyloid nucleation score |
| --- | --- |
| TYVHNKVCKNACNFSTLGPC | 0.143 ± 0.8 |
| NGSYGSYMHFPEPIMSIFMY | inactive |
| WRDSVDTGISSGKVGGRCSE | -0.047 ± 0.27 |
| SNYGTGDGCCVGV | 1.81 ± 0.099 |
| RLQDNRDVATGH | inactive |
| YTLFLPTRNLRFLVVYGVLV | 0.009 ± 0.61 |
| RDRFS | 0.248 ± 0.61 |
| RKVVRLSHFLMCDCSRKPRR | -0.072 ± 0.76 |
| GKTYLDKLMGGLHRQDPGTR | 1.28 ± 0.53 |
| VKSLLRDLCGPGCMLYMIVH | -0.11 ± 0.53 |
| SRITCKDVMLL | -0.654 ± 0.49 |
| AMTTRFCGVFLKGWL | 0.176 ± 0.64 |
| TGELSAQHKASTYYCYCWLF | 4.43 ± 0.076 |
| YVRGSDGSKKPWVYSAVGIF | -0.793 ± 1.1 |
| VWYYGSRKCHAVYLRNRMSV | -0.192 ± 0.41 |
| DGVSMFWMPHAKRALLYGSY | 0.063 ± 1.1 |
| LCDLVKASSMFANGSDHFIV | -0.569 ± 0.61 |
| TCSRDVFGWTVLGTGLPPLR | 0.878 ± 0.32 |
| QKMLLKIWIVDRNTYSAVLN | -0.425 ± 0.74 |
| QRCRFPYDTGSSTHSWTEVG | 0.614 ± 0.35 |
| SCGIVRERFIVFELWSVCSG | -0.147 ± 0.42 |
| GDMVIDLSKYITYSSL | 1.37 ± 0.38 |
| MCRRFNFIIEVVVNASMTIR | -1.31 ± 1 |
| MIHYKYGFPNMGIRTYVSFV | 1.47 ± 0.26 |
| MWRVWECGGRRDNLVRCPSR | 0.774 ± 0.51 |

| Substance | amyloid nucleation score |
| --- | --- |
| VSRSSRWYNRIGMVRSVWNK | -0.139 ± 0.21 |
| MLDMPDYCNYYL | 1.27 ± 0.14 |
| IYLHFGNLLNYFETRRTVFR | 6.19 ± 0.087 |
| TLRSETMSDWYSRLHGFVFK | 0.988 ± 0.52 |
| ILAVKHFRFMVGSKISGGSG | 2.15 ± 0.094 |
| TILDIVLIIPAKVVHKEERR | -0.093 ± 0.41 |
| VSYDVNIFWYPKKMS | inactive |
| NPVRISL | 0.214 ± 0.28 |
| KITCVITNALCSLTERADR | 9.394 ± 0.069 |
| FCGQKTNFNCLDETLLIR | 1.09 ± 0.59 |
| KCVVRAVA | 2.23 ± 0.24 |
| TVFSK | -0.998 ± 0.76 |
| AMVWGSIFSRKSQGLSHSSG | inactive |
| TTSLSYFLIQKALLWKVEYH | -1.38 ± 0.38 |
| YSYILSFSSFFYFLRHCIKY | inactive |
| CAQVRLQSAFIYSYMASVGR | 3.32 ± 0.056 |
| IFGLNHWTVFSSPINLSTSG | inactive |
| TNQGFLWVSPLILTRCGDRQ | 6.68 ± 0.079 |
| NWWESRAFGWYDSLSIFSYT | -0.469 ± 1.1 |
| RPLASSWAQY | 1.65 ± 0.21 |
| YAGWVGI | -0.387 ± 1.1 |
| RTCDDA | 0.294 ± 0.8 |
